Test results from paper PMC3468530, “Structural and Enzymatic characterization of the lactonase SisLac from Sulfolobus islandicus” (PLoS ONE, 2012).
Each block holds one molecule with its values, some of them ahead of it.

How the values were obtained:
[1] = molecular target: SisLac, Phosphotriesterase-Like Lactonase from Sulfolobus islandicus strain M.16.4 (Sulfolobus islandicus strain M.16.4); assay: SEC-MALS; KW803 column (Shodex), room temperature (25°C), 0.5 ml/min, activity buffer (HEPES 50 mM, NaCl 150 mM, CoCl2 0.2 mM) with pH adjusted to 7.3; static and quasi-elastic light scattering, refractometry
[2] = molecular target: SisLac, Phosphotriesterase-Like Lactonase from Sulfolobus islandicus strain M.16.4 (Sulfolobus islandicus strain M.16.4); assay: dynamic light scattering; room temperature, 30 µL of purified protein at 2.5 mg/mL in activity buffer (HEPES 50 mM pH 8, NaCl 150 mM, CoCl2 0.2 mM), 633 nm
[3] = molecular target: the molecule itself; assay: SEC-MALS; KW803 column (Shodex), room temperature (25°C), 0.5 ml/min, activity buffer (HEPES 50 mM, NaCl 150 mM, CoCl2 0.2 mM) with pH adjusted to 7.3; static and quasi-elastic light scattering, refractometry

- stoichiometry N [1]: 2
- stoichiometry N [2]: 2
Molecule: SisLac, Phosphotriesterase-Like Lactonase from Sulfolobus islandicus strain M.16.4 (enzyme)

B1: SsoPox, Phosphotriesterase-Like Lactonase from Sulfolobus solfataricus (enzyme)
chain: MRIPLVGKDSIESKDIGFTLIHEHLRVFSEAVRQQWPHLYNEDEEFRNAVNEVKRAMQFGVKTIVDPTVMGLGRDIRFMEKVVKATGINLVAGTGIYIYIDLPFYFLNRSIDEIADLFIHDIKEGIQGTLNKAGFVKIAADEPGITKDVEKVIRAAAIANKETKVPIITHSNAHNNTGLEQQRILTEEGVDPGKILIGHLGDTDNIDYIKKIADKGSFIGLDRYGLDLFLPVDKRNETTLRLIKDGYSDKIMISHDYCCTIDWGTAKPEYKPKLAPRWSITLIFEDTIPFLKRNGVNEEVIATIFKENPKKFFS
notes: SsoPox, Phosphotriesterase-Like Lactonase of Sulfolobus solfataricus (strain MT4, GenBank AAW47234.1); made from the plasmid pET22b-SsoPox; Plasmid pET22b-SsoPox (GeneArt); also called wt SsoPox; source: E. coli BL21(DE3)-pGro7/GroEL, purified (70°C heat step, ammonium sulfate precipitation, size exclusion chromatography)
- stoichiometry N [3]: 2
